Reference: IntAct's records for PubMed 19219046

Biological target: DDX19B, Q9UMR2-1
Sequence (Q9UMR2 whole entry): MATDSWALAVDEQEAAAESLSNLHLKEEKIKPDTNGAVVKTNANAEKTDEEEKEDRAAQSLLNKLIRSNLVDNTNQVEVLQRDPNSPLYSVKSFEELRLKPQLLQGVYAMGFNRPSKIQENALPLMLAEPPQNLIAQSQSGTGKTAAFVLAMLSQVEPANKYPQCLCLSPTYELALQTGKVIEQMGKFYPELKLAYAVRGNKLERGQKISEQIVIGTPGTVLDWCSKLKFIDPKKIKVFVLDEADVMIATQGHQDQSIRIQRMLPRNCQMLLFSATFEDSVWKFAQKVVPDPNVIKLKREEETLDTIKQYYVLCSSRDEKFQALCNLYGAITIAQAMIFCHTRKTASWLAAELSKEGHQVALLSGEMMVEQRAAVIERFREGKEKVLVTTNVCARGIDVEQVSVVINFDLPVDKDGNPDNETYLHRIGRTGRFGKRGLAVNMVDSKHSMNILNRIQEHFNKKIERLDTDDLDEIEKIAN

Chain of Nuclear pore complex protein Nup214 (Homo sapiens), P35658-1 D359R (P35658 whole entry D359R, one chain of several): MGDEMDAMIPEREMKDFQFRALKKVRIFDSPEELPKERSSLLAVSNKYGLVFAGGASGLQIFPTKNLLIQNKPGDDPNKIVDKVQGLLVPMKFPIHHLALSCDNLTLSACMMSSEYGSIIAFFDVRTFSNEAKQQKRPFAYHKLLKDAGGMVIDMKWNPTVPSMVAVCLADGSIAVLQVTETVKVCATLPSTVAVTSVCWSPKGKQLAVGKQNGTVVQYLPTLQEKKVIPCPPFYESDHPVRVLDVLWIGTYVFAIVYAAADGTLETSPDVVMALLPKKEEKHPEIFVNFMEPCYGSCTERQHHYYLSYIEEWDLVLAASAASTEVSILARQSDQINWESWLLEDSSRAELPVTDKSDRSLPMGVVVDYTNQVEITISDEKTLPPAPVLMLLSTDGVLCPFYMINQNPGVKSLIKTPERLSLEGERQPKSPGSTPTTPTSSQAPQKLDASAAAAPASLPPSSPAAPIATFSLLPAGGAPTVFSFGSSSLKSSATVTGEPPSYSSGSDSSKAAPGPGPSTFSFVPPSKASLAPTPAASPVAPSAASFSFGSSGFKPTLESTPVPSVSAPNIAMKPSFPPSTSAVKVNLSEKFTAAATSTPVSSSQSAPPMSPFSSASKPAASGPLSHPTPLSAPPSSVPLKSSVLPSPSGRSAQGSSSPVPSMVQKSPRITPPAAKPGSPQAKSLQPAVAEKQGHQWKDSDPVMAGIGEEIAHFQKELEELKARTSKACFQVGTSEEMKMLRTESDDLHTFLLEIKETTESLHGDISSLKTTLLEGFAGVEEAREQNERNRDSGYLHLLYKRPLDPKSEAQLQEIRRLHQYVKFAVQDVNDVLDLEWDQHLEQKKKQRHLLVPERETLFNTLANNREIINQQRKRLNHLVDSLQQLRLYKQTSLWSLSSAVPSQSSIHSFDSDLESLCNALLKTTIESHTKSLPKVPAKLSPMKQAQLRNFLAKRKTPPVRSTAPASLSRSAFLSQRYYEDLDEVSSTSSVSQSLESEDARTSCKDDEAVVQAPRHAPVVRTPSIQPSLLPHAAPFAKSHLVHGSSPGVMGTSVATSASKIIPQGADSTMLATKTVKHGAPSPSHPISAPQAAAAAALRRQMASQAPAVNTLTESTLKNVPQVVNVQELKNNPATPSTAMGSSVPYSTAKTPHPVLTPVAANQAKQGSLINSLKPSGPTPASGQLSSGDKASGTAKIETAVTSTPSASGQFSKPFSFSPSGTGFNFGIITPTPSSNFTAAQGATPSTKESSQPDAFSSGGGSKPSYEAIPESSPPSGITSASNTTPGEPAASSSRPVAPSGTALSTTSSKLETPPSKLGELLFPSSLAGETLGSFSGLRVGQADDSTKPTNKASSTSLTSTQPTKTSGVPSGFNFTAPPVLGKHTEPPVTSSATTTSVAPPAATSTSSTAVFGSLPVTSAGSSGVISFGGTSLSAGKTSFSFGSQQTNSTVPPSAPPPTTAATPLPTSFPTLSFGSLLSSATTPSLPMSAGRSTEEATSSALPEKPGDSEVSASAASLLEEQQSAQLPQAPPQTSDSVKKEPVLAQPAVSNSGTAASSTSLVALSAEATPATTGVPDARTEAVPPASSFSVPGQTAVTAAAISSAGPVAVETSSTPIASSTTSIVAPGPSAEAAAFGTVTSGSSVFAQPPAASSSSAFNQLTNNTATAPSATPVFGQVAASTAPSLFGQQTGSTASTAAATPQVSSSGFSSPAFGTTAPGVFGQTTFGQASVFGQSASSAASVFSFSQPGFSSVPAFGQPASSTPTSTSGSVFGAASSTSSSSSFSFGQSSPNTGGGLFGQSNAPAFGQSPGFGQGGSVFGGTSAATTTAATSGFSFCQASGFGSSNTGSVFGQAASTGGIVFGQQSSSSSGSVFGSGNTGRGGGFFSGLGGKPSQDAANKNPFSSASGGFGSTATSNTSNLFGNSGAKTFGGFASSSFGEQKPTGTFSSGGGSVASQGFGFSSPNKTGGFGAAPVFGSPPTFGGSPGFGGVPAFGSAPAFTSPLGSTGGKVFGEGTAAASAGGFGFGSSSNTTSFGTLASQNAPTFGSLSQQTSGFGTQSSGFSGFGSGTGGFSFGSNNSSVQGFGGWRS
Chain of Nuclear pore complex protein Nup214 (Homo sapiens), P35658-1 V353A (P35658 whole entry V353A, one chain of several): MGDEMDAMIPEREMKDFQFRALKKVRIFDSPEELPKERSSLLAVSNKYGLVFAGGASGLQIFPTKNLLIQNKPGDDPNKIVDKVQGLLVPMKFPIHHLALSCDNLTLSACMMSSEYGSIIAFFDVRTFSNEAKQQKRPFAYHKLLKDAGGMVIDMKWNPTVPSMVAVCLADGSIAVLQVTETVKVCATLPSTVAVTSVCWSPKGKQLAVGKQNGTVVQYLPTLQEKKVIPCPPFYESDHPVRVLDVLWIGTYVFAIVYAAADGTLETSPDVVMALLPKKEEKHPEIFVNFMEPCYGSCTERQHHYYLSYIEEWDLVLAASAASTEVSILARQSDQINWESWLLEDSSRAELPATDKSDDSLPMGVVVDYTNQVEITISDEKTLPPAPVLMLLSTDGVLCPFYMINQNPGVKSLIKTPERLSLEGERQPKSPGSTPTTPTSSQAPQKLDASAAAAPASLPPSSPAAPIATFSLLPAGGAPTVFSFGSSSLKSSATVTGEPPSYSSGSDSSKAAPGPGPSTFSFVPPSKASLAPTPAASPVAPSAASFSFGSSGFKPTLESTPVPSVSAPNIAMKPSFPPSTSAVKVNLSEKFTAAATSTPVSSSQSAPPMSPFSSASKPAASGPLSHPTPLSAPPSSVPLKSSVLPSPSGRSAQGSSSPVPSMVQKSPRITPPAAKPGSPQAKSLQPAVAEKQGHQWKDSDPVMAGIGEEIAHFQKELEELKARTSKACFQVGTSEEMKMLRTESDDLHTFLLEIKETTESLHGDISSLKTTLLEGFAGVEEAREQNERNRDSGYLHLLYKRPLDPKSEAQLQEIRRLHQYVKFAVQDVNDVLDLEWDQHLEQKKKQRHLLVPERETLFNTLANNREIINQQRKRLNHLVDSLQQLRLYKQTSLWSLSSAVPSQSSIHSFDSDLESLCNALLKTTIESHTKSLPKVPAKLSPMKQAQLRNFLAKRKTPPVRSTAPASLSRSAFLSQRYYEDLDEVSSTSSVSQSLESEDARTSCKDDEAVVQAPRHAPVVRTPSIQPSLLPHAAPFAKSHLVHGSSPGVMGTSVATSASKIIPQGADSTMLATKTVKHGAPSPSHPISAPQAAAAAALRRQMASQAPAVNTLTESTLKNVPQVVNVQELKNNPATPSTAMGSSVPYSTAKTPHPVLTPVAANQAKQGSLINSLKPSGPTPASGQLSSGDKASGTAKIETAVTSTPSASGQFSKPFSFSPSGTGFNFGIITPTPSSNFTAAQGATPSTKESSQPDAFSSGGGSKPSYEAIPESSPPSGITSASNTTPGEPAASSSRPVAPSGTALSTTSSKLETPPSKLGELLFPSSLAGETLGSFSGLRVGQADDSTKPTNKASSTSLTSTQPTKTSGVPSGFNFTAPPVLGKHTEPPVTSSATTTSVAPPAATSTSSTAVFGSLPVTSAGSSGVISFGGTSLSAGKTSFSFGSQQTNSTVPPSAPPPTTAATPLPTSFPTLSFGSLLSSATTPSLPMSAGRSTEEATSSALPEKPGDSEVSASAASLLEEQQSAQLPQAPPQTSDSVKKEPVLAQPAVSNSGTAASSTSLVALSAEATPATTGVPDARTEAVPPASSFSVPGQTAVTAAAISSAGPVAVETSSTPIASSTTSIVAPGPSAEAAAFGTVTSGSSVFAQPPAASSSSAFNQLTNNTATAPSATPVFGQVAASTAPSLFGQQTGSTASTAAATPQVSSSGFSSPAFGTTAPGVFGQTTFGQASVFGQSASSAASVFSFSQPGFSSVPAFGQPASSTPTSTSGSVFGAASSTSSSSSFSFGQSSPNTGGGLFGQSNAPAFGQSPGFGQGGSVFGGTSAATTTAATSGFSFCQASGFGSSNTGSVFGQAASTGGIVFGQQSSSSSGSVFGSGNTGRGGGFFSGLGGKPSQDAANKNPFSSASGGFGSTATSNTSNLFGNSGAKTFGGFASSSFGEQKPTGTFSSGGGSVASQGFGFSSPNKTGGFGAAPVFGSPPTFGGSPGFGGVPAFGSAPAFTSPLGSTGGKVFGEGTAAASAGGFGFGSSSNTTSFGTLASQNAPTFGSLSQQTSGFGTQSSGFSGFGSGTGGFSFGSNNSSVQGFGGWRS

effect of a mutation on the interaction | Substance
decreasing interaction | Nuclear pore complex protein Nup214 (Homo sapiens), P35658-1 V353A
disrupting interaction | Nuclear pore complex protein Nup214 (Homo sapiens), P35658-1 D359R
